# Experimental data taken from patent publication US20250076311A1 (Chugai, published 2025).
# Substitutions are numbered along the chain they refer to.
# B1: M103205H795-MY011/M103202L889-SK1 (antibody, human IgG1, kappa, name in EU numbering)
# heavy: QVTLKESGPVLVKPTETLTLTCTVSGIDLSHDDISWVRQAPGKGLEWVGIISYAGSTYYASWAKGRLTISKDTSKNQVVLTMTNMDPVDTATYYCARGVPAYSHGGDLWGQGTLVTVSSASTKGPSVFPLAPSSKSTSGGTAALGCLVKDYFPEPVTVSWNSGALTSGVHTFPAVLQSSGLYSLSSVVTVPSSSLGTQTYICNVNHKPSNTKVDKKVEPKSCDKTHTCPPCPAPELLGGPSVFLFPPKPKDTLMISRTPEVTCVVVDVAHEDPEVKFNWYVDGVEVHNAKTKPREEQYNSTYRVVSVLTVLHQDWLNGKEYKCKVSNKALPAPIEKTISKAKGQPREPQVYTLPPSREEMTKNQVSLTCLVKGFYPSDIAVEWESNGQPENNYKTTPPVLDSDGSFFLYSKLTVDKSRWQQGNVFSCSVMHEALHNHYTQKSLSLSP
# light: DIVMTQSPATLSLSPGERATLSCTSSQSVYHANWLSWFQQKPGQPPKLLIYWASTLAYGVPSRFSGSGSGTDFTLTISSLQPEDAATYYCAGGYGGGRYAFGQGTKVEIKRTVAAPSVFIFPPSDEQLKSGTASVVCLLNNFYPREAKVQWKVDNALQSGNSQESVTEQDSKDSTYSLSSTLTLSKADYEKHKVYACEVTHQGLSSPVTKSFNRGEC
# notes: Substitution introduced into M103205H795-SG1; EU numbering
# B2: M103205H795-MY073/M103202L889-SK1 (antibody, human IgG1, kappa, name in EU numbering)
# heavy: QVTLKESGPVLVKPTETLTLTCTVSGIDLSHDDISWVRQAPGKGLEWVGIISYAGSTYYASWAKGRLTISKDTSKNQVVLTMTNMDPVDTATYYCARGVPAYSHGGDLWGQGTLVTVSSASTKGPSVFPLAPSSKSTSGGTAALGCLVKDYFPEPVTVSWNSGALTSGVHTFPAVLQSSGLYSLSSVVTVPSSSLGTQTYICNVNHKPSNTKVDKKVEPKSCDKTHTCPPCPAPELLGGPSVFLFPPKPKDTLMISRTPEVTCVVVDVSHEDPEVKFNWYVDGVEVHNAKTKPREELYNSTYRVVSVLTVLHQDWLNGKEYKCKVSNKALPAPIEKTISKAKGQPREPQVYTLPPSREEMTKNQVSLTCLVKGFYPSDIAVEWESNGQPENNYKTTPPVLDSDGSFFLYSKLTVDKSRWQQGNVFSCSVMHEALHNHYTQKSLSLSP
# light: B1 light
# notes: as for B1
# B3: M103205H795-MY013/M103202L889-SK1 (antibody, human IgG1, kappa, name in EU numbering)
# heavy: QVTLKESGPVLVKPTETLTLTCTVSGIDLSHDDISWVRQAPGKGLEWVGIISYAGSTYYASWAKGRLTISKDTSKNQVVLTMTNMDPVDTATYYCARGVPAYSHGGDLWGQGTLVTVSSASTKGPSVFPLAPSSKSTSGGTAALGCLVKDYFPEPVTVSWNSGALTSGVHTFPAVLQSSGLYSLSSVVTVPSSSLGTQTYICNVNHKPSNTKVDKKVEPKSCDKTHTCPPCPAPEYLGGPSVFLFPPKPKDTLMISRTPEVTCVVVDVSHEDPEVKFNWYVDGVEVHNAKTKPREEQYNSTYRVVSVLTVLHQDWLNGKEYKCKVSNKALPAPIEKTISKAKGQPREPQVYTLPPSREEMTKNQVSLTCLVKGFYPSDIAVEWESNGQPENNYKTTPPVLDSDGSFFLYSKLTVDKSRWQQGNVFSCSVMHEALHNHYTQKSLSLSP
# light: B1 light
# notes: as for B1
# B4: M103205H795-MY141/M103202L889-SK1 (antibody, human IgG1, kappa, name in EU numbering)
# heavy: QVTLKESGPVLVKPTETLTLTCTVSGIDLSHDDISWVRQAPGKGLEWVGIISYAGSTYYASWAKGRLTISKDTSKNQVVLTMTNMDPVDTATYYCARGVPAYSHGGDLWGQGTLVTVSSASTKGPSVFPLAPSSKSTSGGTAALGCLVKDYFPEPVTVSWNSGALTSGVHTFPAVLQSSGLYSLSSVVTVPSSSLGTQTYICNVNHKPSNTKVDKKVEPKSCDKTHTCPPCPAPELLNGPSVFLFPPKPKDTLMISRTPEVTCVVVDVAHEDPEVKFNWYVDGVEVHNAKTKPREEQYNSTYRVVSVLTVLHQDWLNGKEYKCKVSNKALPAPIEKTISKAKGQPREPQVYTLPPSREEMTKNQVSLTCLVKGFYPSDIAVEWESNGQPENNYKTTPMVLDSDGSFFLYSKLTVDKSRWQQGNVFSCSVMHEALHNHYTQKSLSLSP
# light: B1 light
# notes: Fc variant of MS1032LO06-SG1; positions in EU numbering
# B5: M103205H795-MY447/M103202L889-SK1 (antibody, human IgG1, kappa)
# heavy: B4 heavy with P234I, N238T, A269S, H270D, A332K, M398P
# light: B1 light
# notes: Substitutions in EU numbering on SG1
# B6: M103205H795-MY061/M103202L889-SK1 (antibody, human IgG1, kappa, name in EU numbering)
# heavy: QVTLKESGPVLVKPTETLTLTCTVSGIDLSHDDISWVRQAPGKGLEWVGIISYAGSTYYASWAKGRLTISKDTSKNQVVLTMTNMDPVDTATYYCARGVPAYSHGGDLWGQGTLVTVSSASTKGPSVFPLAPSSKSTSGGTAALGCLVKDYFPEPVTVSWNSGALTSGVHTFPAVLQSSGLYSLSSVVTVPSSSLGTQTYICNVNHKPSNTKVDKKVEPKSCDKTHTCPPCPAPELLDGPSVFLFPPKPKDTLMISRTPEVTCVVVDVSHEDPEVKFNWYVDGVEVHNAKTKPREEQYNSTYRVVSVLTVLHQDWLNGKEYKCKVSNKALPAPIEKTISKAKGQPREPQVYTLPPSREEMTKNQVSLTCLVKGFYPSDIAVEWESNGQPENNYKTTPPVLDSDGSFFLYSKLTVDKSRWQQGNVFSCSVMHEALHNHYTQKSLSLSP
# light: B1 light
# notes: as for B1
# B7: M103205H795-MY048/M103202L889-SK1 (antibody, human IgG1, kappa, name in EU numbering)
# heavy: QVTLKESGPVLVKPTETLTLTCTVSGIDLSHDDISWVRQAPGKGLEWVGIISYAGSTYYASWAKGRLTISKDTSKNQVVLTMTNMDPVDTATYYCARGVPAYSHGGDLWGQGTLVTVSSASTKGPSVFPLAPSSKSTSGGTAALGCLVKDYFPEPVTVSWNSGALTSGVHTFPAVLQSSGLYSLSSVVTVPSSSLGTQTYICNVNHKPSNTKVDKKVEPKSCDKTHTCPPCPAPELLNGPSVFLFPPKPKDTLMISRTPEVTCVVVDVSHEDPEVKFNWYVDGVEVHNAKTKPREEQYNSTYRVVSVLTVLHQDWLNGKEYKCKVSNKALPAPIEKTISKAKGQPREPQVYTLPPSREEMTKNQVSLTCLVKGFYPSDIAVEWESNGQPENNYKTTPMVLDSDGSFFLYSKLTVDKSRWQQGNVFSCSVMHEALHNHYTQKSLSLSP
# light: B1 light
# notes: as for B4
# B8: M103205H795-MY050/M103202L889-SK1 (antibody, human IgG1, kappa, name in EU numbering)
# heavy: B4 heavy with H270E, M398P
# light: B1 light
# notes: as for B4
# B9: M103205H795-MY265/M103202L889-SK1 (antibody, human IgG1, kappa, name in EU numbering)
# heavy: B4 heavy with N238T, A269S, H270D, A332K, M398P
# light: B1 light
# notes: also called MS1032LO06-MY265
# B10: M103205H795-MY052/M103202L889-SK1 (antibody, human IgG1, kappa, name in EU numbering)
# heavy: B4 heavy with A269S, H270E
# light: B1 light
# notes: as for B4
# B11: M103205H795-MY147/M103202L889-SK1 (antibody, human IgG1, kappa, name in EU numbering)
# heavy: B4 heavy with L237W, A269S, H270E
# light: B1 light
# notes: as for B4
# Assays:
# [1] = biological target: T1, cynomolgus monkey FcγRIIa2 extracellular domain, His-tagged (cynomolgus monkey); experiment: SPR Biacore, KD(SG1)/KD(variant)
# T1 construct: also called cyno FcγRIIa2; cynoFcgRIIa2; not shown: C-terminal His-tag
# T1 chain: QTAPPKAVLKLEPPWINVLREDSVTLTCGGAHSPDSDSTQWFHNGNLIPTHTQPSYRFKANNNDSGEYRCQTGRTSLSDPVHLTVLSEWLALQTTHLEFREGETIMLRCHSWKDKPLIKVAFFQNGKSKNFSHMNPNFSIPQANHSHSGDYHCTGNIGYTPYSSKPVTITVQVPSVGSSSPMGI
# [2] = biological target: T2, cynomolgus monkey FcγRIIa1 extracellular domain, His-tagged (cynomolgus monkey); experiment: SPR Biacore, antibody captured, FcgR analyte
# T2 construct: also called cyno FcγRIIa1; cynoFcgRIIa1; not shown: C-terminal His-tag
# T2 chain: T1 chain with T95P, A121T, K127I, S128A, N130K, N135D, Q142R
# [3] = biological target: T3, cynomolgus monkey FcγRIIb extracellular domain, His-tagged (cynomolgus monkey); experiment: SPR Biacore, KD(SG1)/KD(variant)
# T3 construct: also called cyno FcγRIIb; cynoFcγRIIb; not shown: C-terminal His-tag
# T3 chain: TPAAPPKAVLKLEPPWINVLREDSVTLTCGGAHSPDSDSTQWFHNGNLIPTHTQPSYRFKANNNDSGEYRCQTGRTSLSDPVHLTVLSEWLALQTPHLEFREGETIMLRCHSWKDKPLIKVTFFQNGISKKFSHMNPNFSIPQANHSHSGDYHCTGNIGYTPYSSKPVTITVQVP
# [4] = biological target: T4, cynomolgus monkey FcγRIIa3 extracellular domain with C-terminal His-tag (cynomolgus monkey); experiment: SPR (BIACORE); KD of SG1 / KD of variant
# T4 construct: also called cyno FcgRIIa3; cynoFcγRIIa3; not shown: His-tag added to the C-terminus
# T4 chain: T1 chain with K127I, N130K, H133P, Q142R
# [5] = biological target: T5, cynomolgus monkey FcγRIIIaS extracellular domain with C-terminal His-tag (cynomolgus monkey, UniProt A3RFZ7 21-206 (rhesus entry)); experiment: SPR (BIACORE); KD of SG1 / KD of variant
# T5 construct: also called cyno FcgRIIIaS; cynoFcγRIIIaS; not shown: His-tag added to the C-terminus
# T5 sequence (A3RFZ7 21-206): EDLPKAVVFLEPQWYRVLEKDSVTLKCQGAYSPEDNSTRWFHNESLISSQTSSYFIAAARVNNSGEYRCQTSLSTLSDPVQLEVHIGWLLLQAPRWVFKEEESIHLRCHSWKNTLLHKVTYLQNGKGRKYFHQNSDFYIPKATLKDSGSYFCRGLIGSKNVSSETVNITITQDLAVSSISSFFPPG
# [6] = biological target: T6, human FcγRIIaH extracellular domain with C-terminal His-tag (human, UniProt P12318 34-217); experiment: SPR (BIACORE); KD of SG1 / KD of variant
# T6 construct: also called human FcgRIIaH; FcγRIIa type H; not shown: His-tag added to the C-terminus
# T6 sequence: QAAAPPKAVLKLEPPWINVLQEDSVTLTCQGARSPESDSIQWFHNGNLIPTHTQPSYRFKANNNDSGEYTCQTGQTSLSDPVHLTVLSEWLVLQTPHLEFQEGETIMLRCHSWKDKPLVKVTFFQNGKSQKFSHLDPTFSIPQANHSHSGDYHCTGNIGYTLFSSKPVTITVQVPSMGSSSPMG
# [7] = biological target: T7, cynomolgus monkey FcγRIIa1 extracellular domain with C-terminal His-tag (cynomolgus monkey); experiment: SPR (BIACORE), antibody captured, FcgR analyte
# T7 construct: also called cyno FcgRIIa1; cynoFcγRIIa1; not shown: His-tag added to the C-terminus
# T7 chain: T1 chain with T95P, A121T, K127I, S128A, N130K, N135D, Q142R
# [8] = biological target: T5, cynomolgus monkey FcγRIIIaS …; experiment: SPR (BIACORE), antibody captured, FcgR analyte
# [9] = biological target: T6, human FcγRIIaH extracellular domain …; experiment: SPR (BIACORE), antibody captured, FcgR analyte
# [10] = biological target: T8, cynomolgus monkey FcγRIIa2 extracellular domain with C-terminal His-tag (cynomolgus monkey); experiment: SPR (Biacore), KD of SG1 / KD of variant
# T8 construct: also called cyno FcgRIIa2; cynoFcγRIIa2
# T8 chain: T1 chain
# [11] = biological target: T9, cynomolgus monkey FcγRIIa3 extracellular domain with C-terminal His-tag (cynomolgus monkey); experiment: SPR (Biacore), antibody captured, FcgR analyte
# T9 construct: also called cyno FcgRIIa3; cynoFcγRIIa3
# T9 chain: T1 chain with K127I, N130K, H133P, Q142R
# [12] = biological target: T10, human FcγRIIaR extracellular domain, His-tagged (human, UniProt P12318 34-217); experiment: SPR Biacore, KD(SG1)/KD(variant)
# T10 construct: also called human FcγRIIa (type R); FcgRIIaR; not shown: C-terminal His-tag
# T10 chain: T6 sequence with H134R
# [13] = biological target: T1, cynomolgus monkey FcγRIIa2 …; experiment: SPR Biacore, antibody captured, FcgR analyte
# [14] = biological target: T7, cynomolgus monkey FcγRIIa1 …; experiment: SPR (BIACORE); KD of SG1 / KD of variant
# [15] = biological target: T4, cynomolgus monkey FcγRIIa3 …; experiment: SPR (BIACORE), antibody captured, FcgR analyte
# [16] = biological target: T11, cynomolgus monkey FcγRIIb extracellular domain with C-terminal His-tag (cynomolgus monkey); experiment: SPR (BIACORE); KD of SG1 / KD of variant
# T11 construct: also called cyno FcgRIIb; cynoFcγRIIb; not shown: His-tag added to the C-terminus
# T11 chain: T3 chain
# [17] = biological target: T12, cynomolgus monkey FcγRIIa3 extracellular domain, His-tagged (cynomolgus monkey); experiment: SPR (BIACORE), antibody captured on chip, soluble FcgR as analyte, 25 C
# T12 construct: also called cyno FcgRIIa3; cynoFcγRIIa3; not shown: His-tag added to the C-terminus
# T12 chain: T1 chain with K127I, N130K, H133P, Q142R
# Experimental: (§1) The kinetic analysis of interactions between these antibodies and FcγR was carried out using BIACORE® T200 or BIACORE® 4000 (GE Healthcare). HBS-EP+ (GE Healthcare) was used as the running buffer, and the measurement temperature was set to 25° C. […] After the measurement, the antibody captured on the chip was washed off by allowing reaction with 10 mM glycine-HCl, pH1.5 and 25 mM NaOH so that the chip was regenerated and used repeatedly. The sensorgrams obtained as measurement results were analyzed by the 1:1 Langmuir binding model using the BIACORE® Evaluation Software to calculate the binding rate constant ka (L/mol/s) and dissociation rate constant kd (1/s), and the dissociation constant KD (mol/L) was calculated from these values. […] Regarding such interactions, KD values were calculated using the following 1:1 binding model described in BIACORE® T100 Software Handbook BR1006-48 Edition AE.
# [18] = biological target: T13, human FcγRIIb extracellular domain, His-tagged (human, UniProt P31994 43-217); experiment: as above
# T13 construct: also called human FcgRIIb; not shown: His-tag added to the C-terminus
# T13 sequence: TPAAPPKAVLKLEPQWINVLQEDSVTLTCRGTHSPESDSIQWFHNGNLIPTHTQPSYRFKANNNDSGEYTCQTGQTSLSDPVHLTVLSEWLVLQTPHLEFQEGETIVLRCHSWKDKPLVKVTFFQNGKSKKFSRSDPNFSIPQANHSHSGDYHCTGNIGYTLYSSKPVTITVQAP
# Experimental: as §1
binder,measurement,setting,value
B1,KD fold (SG1 = 1),[1],1.6 fold
same,Kd,[2],2300 nM
B2,KD fold (SG1 = 1),[1],3.9 fold
B3,KD fold (SG1 = 1),[3],0.5 fold
B4,KD fold (SG1 = 1),[4],0.5 fold
same,KD fold (SG1 = 1),[5],0.08 fold
same,KD fold (SG1 = 1),[6],0.6 fold
same,Kd,[7],2200 nM
same,Kd,[8],4700 nM
same,Kd,[9],1300 nM
B5,KD fold (SG1 = 1),[10],5.6 fold
same,Kd,[11],1500 nM
B6,KD fold (SG1 = 1),[3],0.4 fold
same,KD fold (SG1 = 1),[12],0.8 fold
same,Kd,[13],6800 nM
B7,KD fold (SG1 = 1),[14],2.5 fold
same,KD fold (SG1 = 1),[5],0.07 fold
same,Kd,[7],1400 nM
same,Kd,[15],7000 nM
same,Kd,[8],5400 nM
B8,KD fold (SG1 = 1),[4],0.5 fold
same,KD fold (SG1 = 1),[16],1.3 fold
same,KD fold (SG1 = 1),[5],0.21 fold
same,KD fold (SG1 = 1),[6],0.3 fold
same,Kd,[8],1700 nM
B9,Kd,[17],43000 nM
same,Kd,[18],2700 nM
B10,KD fold (SG1 = 1),[14],2.5 fold
same,KD fold (SG1 = 1),[5],0.24 fold
same,Kd,[8],1500 nM
B11,KD fold (SG1 = 1),[16],1.9 fold
same,KD fold (SG1 = 1),[5],0.07 fold
same,Kd,[8],5500 nM
